The MegaScale stability set (Tsuboyama et al. 2023)

B1: EHEE_rd2_0191 (parent)
chain: TTEYTFTDDEEARRAIEELKKRGLTFRYEKHGTTWRVRVD

Variants of: B1
Experiment: folding stability dG (cDNA display proteolysis); higher = more stable
Conditions: PBS, room temperature

Folding stability dG [kcal/mol], by site and new letter:
K20: W 1.75; H 1.71; I 2.42; T 2.12; F 2.02; E 1.86; G 1.41; D 1.15; M 2.15; C 2.56; Q 2; S 1.81; Y 1.99; L 2.15; A 1.81; N 1.54; V 2.07; R 2.27
T25: Q 2.01; P 1.84; R 2.27; D 1.46; S 2.29; E 1.58; I 2.14; A 1.95; W 2.28; F 2.15; Y 2.07; G 1.49; M 1.95; L 1.97; V 2.08; H 2.25; K 2.25; N 2.12
E18: I 2.15; M 2.11; H 1.86; W 2.69; S 1.99; K 1.74; T 1.84; Q 1.97; D 2.03; G 1.74; F 2.12; A 2.01; R 1.7; L 2.08; V 1.96; N 1.9; Y 2.29
K30: W 0.819; V 1.82; F 1.22; A 0.56; E -0.015; R 1.99; T 0.892; L 1.54; N 0.931; M 1.43; H 1.51; I 1.86; S 0.569; Y 1.21; Q 1.54
E17: K 2; V 1.83; G 1.71; T 1.89; R 2.23; S 1.97; Y 2.02; I 2.01; D 1.95; A 2.25; N 2.02; L 2.11; M 2.1; Q 2.04; W 2.07; H 1.88; F 1.97
R13: L 2.3; W 2.52; M 2.42; T 1.83; S 1.55; I 2.1; N 1.68; E 1.79; H 1.98; F 2.31; V 1.69; Y 2.2; K 2.04; G 1.44; Q 1.94; A 1.85; D 0.9
L19: V 0.238; F 2.64; A 0.832; I 1.55; M 1.73; W 1.94; Y 1.58
I16: Y -0.65; M 2.23; G -0.247; W 0.024; A -0.729; N 0.255; L 1.64; C 1.58; T -0.106; V 1.12; F 1.37
R14: I 1.93; W 1.68; G 1.35; N 1.84; S 1.75; D 1.45; V 1.78; E 1.7; Q 1.9; K 2.12; A 2.1; Y 1.64; M 1.97; H 1.82; L 1.91; T 1.73; F 1.64
E11: H 1.77; K 1.73; G 1.46; P 0.754; M 2.02; C 2.14; S 2.43; R 1.54; L 1.84; T 2.31; I 1.78; N 1.56; A 2.16; D 1.88; Y 1.29; W 1.5; V 1.85; Q 2.1; F 1.37
F26: M 0.795; A 0.99; T 0.447; W 0.681; L 1.61; H 0.04; V 2.73; P 1.41; Y 1.73; I 2.04
G23: E 0.428; R 1.18; K 1.21; S 0.756; W 0.206; A 0.759; L 0.596; T -0.314; M 0.906; F 0.765; C 1.31; Q 0.972; D 0.517; H 1.26; N 1.4; Y 0.547
A15: I 2.02; L 2.63; K 1.97; W 2.9; V 2.36; G 1.06; R 1.08; E 0.719; N 0.878; T 1.94; C 3.17; F 4.89; Q 1.29; S 1.07; Y 2.87; H 1.73; M 2.85
L24: F 2.08; A 2; Q 1.27; V 2.14; M 1.91; I 2.16; G 0.321; Y 2.15; D 0.718; E 1.1; K 1.55; N 0.838; W 1.65; T 1.12; H 1.46; R 1.42; S 1.18
A12: F 3.56; M 2.33; C 2.13; V 1.47; L 2.53; W 1.63; I 0.942; S -0.064; G 1.04; Q -0.999; K -0.512; T 0.424; H 0.073; Y 1.66; R -0.372
R22: Q 2.1; V 1.23; F 1.55; H 1.64; S 1.93; W 1.78; K 2.02; D 1.03; E 1.35; M 2.19; A 2.1; G 1.28; I 1.52; T 1.56; Y 1.55; L 2.25; N 1.69
E29: T 2.21; D 1.7; N 1.38; G 1.04; M 1.94; K 1.72; H 1.83; Q 1.75; L 1.71; Y 2.44; I 2.13; C 2.56; A 1.75; F 2.35; W 3.04; V 2.07; S 2.12; R 1.77
K21: S 1.94; H 1.58; A 2.12; W 1.37; L 1.94; R 2.35; C 2.13; Y 1.49; M 1.9; E 1.71; F 1.63; G 1.45; N 1.78; D 1.32; V 1.66; T 1.82; Q 1.81; I 1.79
Y28: E 0.447; C 2.52; G 0.032; S 1.34; F 2.06; D -0.987; R -0.634; W 2.2; H 0.592; L 2.15; K 0.466; V 3.23; Q 0.764; I 2.95; M 1.86; T 1.78; A 2.4
R27: A 2.1; L 1.74; G 1.37; N 1.91; Q 2.25; E 2.02; M 2.03; F 2.29; V 2.51; H 2.39; S 2.73; T 3.02; K 2; D 1.62; Y 2.42; I 2.29; W 2.77
H31: F 2.15; S 2.1; Q 2.21; N 2.21; I 2.81; W 1.89; R 1.99; K 2.06; V 2.56; D 2.39; A 1.75; G 0.625; T 2.29; L 2.29; E 2.24; M 2.18
